Test results from IntAct's records for PubMed 19037259.

Legend:
fig4_yeast FIG4 = fig4_yeast FIG4 (UniProt P42837)
vac14_yeast VAC14 = vac14_yeast VAC14 (UniProt Q06708)
UniProt Q06708, sequence (Q06708 whole entry): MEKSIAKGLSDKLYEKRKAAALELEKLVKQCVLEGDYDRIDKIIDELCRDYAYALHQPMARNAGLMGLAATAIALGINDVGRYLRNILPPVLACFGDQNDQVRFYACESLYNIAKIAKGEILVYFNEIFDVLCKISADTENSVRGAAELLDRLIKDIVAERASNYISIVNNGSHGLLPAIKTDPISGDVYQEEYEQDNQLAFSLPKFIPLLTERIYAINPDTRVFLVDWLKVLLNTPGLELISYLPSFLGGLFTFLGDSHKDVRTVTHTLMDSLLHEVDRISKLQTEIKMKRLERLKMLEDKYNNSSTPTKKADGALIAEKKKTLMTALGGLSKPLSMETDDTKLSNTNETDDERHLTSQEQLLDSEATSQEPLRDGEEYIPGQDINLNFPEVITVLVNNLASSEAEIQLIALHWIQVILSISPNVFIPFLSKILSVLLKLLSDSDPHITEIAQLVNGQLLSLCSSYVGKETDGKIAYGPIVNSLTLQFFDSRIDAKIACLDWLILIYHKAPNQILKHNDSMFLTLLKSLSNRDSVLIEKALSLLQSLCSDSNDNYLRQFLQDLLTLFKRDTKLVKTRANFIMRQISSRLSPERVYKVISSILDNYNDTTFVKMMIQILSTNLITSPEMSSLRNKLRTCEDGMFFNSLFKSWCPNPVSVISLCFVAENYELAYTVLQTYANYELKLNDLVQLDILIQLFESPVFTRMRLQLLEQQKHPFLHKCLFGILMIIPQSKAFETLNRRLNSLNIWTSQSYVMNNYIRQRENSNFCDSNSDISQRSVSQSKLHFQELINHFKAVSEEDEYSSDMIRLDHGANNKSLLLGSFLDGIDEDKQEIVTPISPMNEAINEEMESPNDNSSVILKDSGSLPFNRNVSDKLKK

UniProt P42837, sequence (P42837 whole entry): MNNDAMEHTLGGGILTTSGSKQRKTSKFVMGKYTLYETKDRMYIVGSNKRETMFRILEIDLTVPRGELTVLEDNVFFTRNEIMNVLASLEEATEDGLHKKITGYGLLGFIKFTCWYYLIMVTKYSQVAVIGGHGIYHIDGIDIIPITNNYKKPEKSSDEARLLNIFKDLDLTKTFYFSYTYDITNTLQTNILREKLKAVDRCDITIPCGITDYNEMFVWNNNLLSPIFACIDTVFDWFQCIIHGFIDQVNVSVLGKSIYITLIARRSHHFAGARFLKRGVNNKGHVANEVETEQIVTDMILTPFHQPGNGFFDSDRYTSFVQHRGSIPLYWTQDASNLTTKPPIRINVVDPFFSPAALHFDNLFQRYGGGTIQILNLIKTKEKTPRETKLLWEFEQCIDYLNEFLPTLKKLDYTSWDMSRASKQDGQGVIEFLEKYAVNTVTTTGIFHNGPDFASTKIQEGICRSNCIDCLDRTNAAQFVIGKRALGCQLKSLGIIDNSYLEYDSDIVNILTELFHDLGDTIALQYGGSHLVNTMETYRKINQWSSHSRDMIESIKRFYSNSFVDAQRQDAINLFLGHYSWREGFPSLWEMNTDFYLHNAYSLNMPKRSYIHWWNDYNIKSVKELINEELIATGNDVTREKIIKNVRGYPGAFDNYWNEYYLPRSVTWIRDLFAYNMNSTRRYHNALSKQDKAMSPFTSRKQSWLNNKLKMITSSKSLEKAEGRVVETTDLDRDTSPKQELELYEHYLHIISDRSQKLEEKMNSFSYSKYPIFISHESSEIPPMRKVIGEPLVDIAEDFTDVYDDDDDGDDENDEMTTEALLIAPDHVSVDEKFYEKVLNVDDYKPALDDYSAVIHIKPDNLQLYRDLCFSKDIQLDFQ

effect of a mutation on the interaction (fig4_yeast FIG4): disrupting interaction
effect of a mutation on the interaction (vac14_yeast VAC14): disrupting interaction
Substance: 1-phosphatidylinositol 3-phosphate 5-kinase FAB1 (Saccharomyces cerevisiae), P34756 G864E
